Consider one molecule from patent US8658372.

The test addresses T1, botulinum toxoid B, P10844.
T1 chain: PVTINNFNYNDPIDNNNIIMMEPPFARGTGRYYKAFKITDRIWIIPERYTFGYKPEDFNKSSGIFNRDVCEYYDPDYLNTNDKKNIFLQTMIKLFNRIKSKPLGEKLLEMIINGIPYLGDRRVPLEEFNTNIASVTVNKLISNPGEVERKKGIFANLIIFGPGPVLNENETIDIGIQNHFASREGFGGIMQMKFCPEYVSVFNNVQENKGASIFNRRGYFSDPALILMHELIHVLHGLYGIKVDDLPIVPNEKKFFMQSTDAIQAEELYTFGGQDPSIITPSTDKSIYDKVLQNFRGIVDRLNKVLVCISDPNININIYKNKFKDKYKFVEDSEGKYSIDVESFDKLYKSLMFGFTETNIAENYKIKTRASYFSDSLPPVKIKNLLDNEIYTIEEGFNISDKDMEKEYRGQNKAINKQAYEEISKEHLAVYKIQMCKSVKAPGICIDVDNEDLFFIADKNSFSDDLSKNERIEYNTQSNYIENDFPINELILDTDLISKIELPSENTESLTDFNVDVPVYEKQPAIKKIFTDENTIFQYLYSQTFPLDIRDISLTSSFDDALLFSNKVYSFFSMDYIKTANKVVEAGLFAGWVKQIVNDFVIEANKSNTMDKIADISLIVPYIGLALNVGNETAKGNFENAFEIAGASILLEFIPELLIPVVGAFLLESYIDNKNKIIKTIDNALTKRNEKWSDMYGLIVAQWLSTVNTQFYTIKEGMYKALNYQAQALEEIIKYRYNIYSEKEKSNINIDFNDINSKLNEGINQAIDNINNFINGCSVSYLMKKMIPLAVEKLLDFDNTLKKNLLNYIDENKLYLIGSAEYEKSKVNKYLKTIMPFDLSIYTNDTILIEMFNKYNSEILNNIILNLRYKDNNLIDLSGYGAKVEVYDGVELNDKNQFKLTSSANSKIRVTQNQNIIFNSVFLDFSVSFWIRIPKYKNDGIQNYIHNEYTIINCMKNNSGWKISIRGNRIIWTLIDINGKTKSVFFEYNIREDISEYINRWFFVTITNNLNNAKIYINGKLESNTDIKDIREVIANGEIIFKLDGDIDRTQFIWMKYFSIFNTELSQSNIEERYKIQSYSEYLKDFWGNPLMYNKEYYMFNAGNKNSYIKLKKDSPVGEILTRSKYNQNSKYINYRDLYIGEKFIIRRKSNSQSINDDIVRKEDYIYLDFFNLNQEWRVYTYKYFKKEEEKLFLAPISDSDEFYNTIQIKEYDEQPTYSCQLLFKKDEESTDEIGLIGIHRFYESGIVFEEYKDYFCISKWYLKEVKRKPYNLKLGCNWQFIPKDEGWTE

B1: Melittin (peptide)
peptide: GIGAVLKVLTTGLPALISWIKRKRQQ
modifications: not checked
B1 had a limit of detection of under 5 ng/mL.
